Values belong to the binder of their own block, whether it stands above or below them.
Legend:
[1] = biological target: T1, human PAC1 (form used for the Kd determination not stated) (human, UniProt P41586 21-468, limits assumed); assay: method not described (Table 8, 'Kd (nM)')
T1 construct: also called hPAC1
T1 sequence (looked up): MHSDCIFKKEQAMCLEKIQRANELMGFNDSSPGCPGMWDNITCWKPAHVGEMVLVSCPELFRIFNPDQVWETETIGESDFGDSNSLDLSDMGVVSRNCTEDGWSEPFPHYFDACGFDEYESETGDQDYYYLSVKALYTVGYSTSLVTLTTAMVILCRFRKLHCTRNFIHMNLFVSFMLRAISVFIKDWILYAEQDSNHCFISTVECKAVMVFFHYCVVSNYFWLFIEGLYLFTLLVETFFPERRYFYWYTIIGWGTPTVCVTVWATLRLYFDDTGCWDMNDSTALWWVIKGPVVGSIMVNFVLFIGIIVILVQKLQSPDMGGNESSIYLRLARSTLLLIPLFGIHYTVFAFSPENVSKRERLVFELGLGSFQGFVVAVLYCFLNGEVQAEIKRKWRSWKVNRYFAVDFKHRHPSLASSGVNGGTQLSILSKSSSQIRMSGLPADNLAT

[2] = biological target: T2, human pituitary adenylate cyclase-activating polypeptide type I receptor, endogenously expressed on SH-SY-5Y … (human, UniProt P41586 21-468); assay: cell-based or functional assay
T2 sequence (looked up): T1 sequence (looked up)

Kd [1]: 0.024 nM
Antagonist IC50 (nM), PAC1 mediated cAMP assay (LANCE), PACAP-38 1 nM stimulation [2]: 4 nM
B1: Anti-hPAC1 antibody L (antibody, human IgG2, kappa, V domains shown)
VH: QVQLVESGGGVVQPGRSLRLSCAASGFTFSRYAMHWVRQASGKGLEWVAVISYDGSNKYYADSVKGRFTISRDNSKNTLYLLMSSLRAEDTAVFYCARGYDILTGYPDYWGQGTLVTVSS
VL: DIQLTQSPSFLSASVGDRVTITCRASQSIGRSLHWYQQKPGKAPKLLFKYASQSLSGVPSRFSGSGSGTEFTLTISSLQPEDFATYYCHQSSRLPFTFGPGTKVDIKR
notes: also called Ab ID L

Kd [1]: 0.189 nM
Antagonist IC50 (nM), PAC1 mediated cAMP assay (LANCE), PACAP-38 1 nM stimulation [2]: 28 nM
B2: Anti-hPAC1 antibody W (antibody, human IgG2, kappa, V domains shown)
VH: QVQLQESGPGLVKPSQTLSLTCTVSGGSISSGGYYWSWIRQHPGKGLEWIGYIYYSGNTYYNPSLKSRVTISGDTSKNQFSLKLRSVTAADTAVYYCTRGGAARGMDVWGQGTTVTVSS
VL: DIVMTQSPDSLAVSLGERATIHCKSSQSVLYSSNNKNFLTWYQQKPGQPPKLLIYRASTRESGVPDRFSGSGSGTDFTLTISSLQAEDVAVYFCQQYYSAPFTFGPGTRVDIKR
notes: also called Ab ID W

Source: patent publication US20180094055A1 (Amgen, published 2018)
